Laboratory results taken from the nanobody polyreactivity screen of Harvey et al. (2022).

Assay: yeast display, Sf9 membrane polyspecificity reagent, FACS + sequencing; frameworks hold sequencing errors
In short: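 Using colony PCR, genes from sorted yeast display clones were amplified, then sequenced on MiSeq at 2 × 250 and filtered by CDR length. The clones had been stained with 10% biotinylated, detergent-solubilized Sf9 membrane reagent for 1 hour at 4 °C and sorted by FACS into low and high (top ~1%) gates on anti-HA and streptavidin fluorescence. Polyreactivity labels come from the gate of origin.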

Sequence | polyreactivity (PSR sort gate)
QVQLVESGGGLVQAGGSLRLSCAASGNTFYGYARGWYRQAPGKERELVASITLSGDSTYYADSVKGRFTISRDNAKNTVYLPMNSLKPEDTAVYYCNADWYFQYPYDYWGQGTQVTVSS | low polyreactivity
QFQLVESGGGLVQAGGSLRLSCAASGSIFYGYTMGWYRQEPGKERELLAAIRKSGGSTNYADSVKGRFTISRDNAKNTVYLQMNSLKPEDTAVYYCSASYYRGRGYYWGQGTQVTVSS | high polyreactivity
QVQLVESGRGLVQAGGSLPLSCAASGFIFRRYAMVWYRQAPGKERELVAGISRGGDSTYYADSVKGRFTISRDNAKNTVYLQMNSLKPEDTAVYFCAGQGRDSTPHGYWGQGTQVTVSS | high polyreactivity
QEQLQESGGGLVQAGGDLRLSCAESGNIFRDYIMGWYRQAPGKEREFVAGIDRGANTNYADSVKGRFTISRDNAKNTVYLQMNSLKPEDTAVYYCAVHTAIVPDFIYWGQGTQVTVSS | low polyreactivity
QVQLVESGGGLVHAGRSLRLSCAPSGSTFSIYDMGWSRQAPGKERELVAAISGSGSRTYYADSVKGRFTISRDNAKNTVYLQMNSLKPEDTALYYCAARGRHRDGFDFNYWGQGTQVTVSS | high polyreactivity
QVQLVESGGGLVQAGGSLRLSCAASGSIFYRNALGWYRQAPGKERELVAAISSDGSTNYADSVKGRFTISRDNAKNTVYLQMNSLKPEDTAVYYCAAPWTQILDYWGQGTQVTVSS | low polyreactivity
QVQLVESGGGLVQAGVSLRLSCAASGRIFNYYTMGWYRQAPGKERELVAAINWSGGSTYYADSVKGRFTISRDNAKNTVYLQMNSLKPEDTAVYYCNALGYYGRAYYRGYDYWGQGTQVTVSS | high polyreactivity
QVQLVETGGGLVQAGGSLRLSCAPSGRILYGYAMGWYRQAPGKERELVASITWSGGSTYADSVKGRFTISRDNAKNTVYLQMNSLKPEDTAVYFCATRRGPKWQWLTYGYWGQGTQVTVSS | low polyreactivity
QVQLVESGGGLVQAGGSLRLSCAASGSIFGSNAMGWYRQAPGKEREFVAVITWRVGDTYYADSVKGRFTISRDNAKNTVYLQMYSLKPEDTAVYYCNVDWKVYGAPDYRIAWKYDYWGQGTQVTVSS | low polyreactivity
QVQLVESGGGLVQAGGSLRLSCAASGSNFDDNAMGWYRQAPGKERELVAAITRSGGSTYYADSVKGRFTISRDNAKNTVYLQMISLKPEDTAVYYCAAAAYHSYGPGKRFYYWGQGSQVTVSS | high polyreactivity
QVQLVESGGGLVQAGGSLRLSCAASGSILRSNAMGWYIQAPGKERELVATITNSGGSTYSDSVKGSFTISRDNAKNTVYVQMNSLKPEVTAVYYCAKAGAGESIAKYDYWGQGTQVTVSS | low polyreactivity
QDQLVESGGGLVQAGGSLRLSCAASGYTFSYYAMGWYRQAPGKERELVAAITSTGSTYYADSVKGRFTISRDYAKNTVYLQMNILKPEDTAVYYCNVDDATVGPVDYWGQGTQVTVSS | low polyreactivity
QVQLVESGGGLVQAGGSLRLSCAASGTFYYNTMGCYRQAPGKERELVAAITSGGRTYADSVKGRFTISRDNAKNTVYLQMNSLKEEDTAVYYCAVDKPYPYRIIIWYEYDYWGQGNQVTVSS | low polyreactivity
QVQLVESGGGLVQAGGSLRLTCAASGSIFGVYTMGWYRQAPGKERELVAAITSAGSTYADSVKGRFTISRDNAKNTVYLQMNSLNPEDTEVYYCNAQSFLLSLRVELREPHEYWGQGTQVTVSS | low polyreactivity
QVQLVESGGGLVQAGGSLRLSCAASGRIYDDNAMGWYRQAPGKERELVAAISSGDSTKYADSVKGRFTISRDNAKNTVYLQMNSLKPDDTAVYSCAAERNHGLVGSESVGRNDYWGPGTQVTVSS | low polyreactivity
QVQLVESGGGLVQAGGSLRLSCAASGRIFSYNAMGWYRQAPGKERELVAAISSGGSTYYADSVKGRFTISRDNAKNTVYLQMNSLKPEDTAVYYCAADRRYYSDMYYWGQGTQVTVSS | low polyreactivity

Sequence | polyreactivity (PSR sort gate)
QVQLVESGGVLVQAGGSLRLSCAASGYIFGNYAMGWYRQAPGNERELVASIDSGGSTNYADSVKGRFTISRDNAKNTVYLQKNSLKPEDTAVYYWAARPTWNRGRSRKYWRYNYWAQGTQVTVSS | high polyreactivity
QVQLVESCGGLVQAGGSLRLSCAASGYTFGSNAMGWYRQAPGKERELVAAISTNGGRTNYADSVKGRFTISRDNAKNTVYLQMNSLKPEDTAVYYCNTRLRVRYYLSGFDYWGQGTQVTVSS | high polyreactivity
QVQLVESGGGLVQAGGSLRLSCAASGSISRYYAMGWYRQAPGKERELVAAISSNGGSTYYADSVKGRFTISRDNAKNTVYLQMNSLKPEDTAVYYCNAYYVGYIRYWTNKLVDYWGQGTQVTVSS | high polyreactivity
QVQLVESGGGLVQAGGSLRLSCAASGSIFNLYAMGWYRQAPGKERELVAGIRWSGGRTYYADSVKGRFTISRDNAKYTVYLQMNSLKPEDTAVYYCAAEYRSWRYTGYSYYYWGQGTQVTVSS | high polyreactivity
QVQLVESGGGLVQAGGSLRLSCAASGSIFPHNTMGWYRQAPGKERELVAAITRDGTSTYYADSVKGRFTISRDNAKNTVYLQMNSLKPEDTAVYYCAARRARSFYVTYYGVGFNYWGQGTQVTVSS | low polyreactivity
QVQLVESGGGLVQAGGSLRISCAASGSNFSIYAMGWYRQAPGKERELVATNYADSVKGRFTISRDNAKNTVYLQMNSLKPEDTAVDYCAADDLSYFWGDVPGDYWGQGTQVTVSS | low polyreactivity
QVQLVESGAGLVQAGGSLRLSCAASGSTFGRNAMGWYRQPPGKERELVASISSGGSTYYADSVKGRFTISRDNAKNTVYLQMNSLKPEDTAVYYCAKDWVYEISYYYYELDYWGQGTQVTVSS | low polyreactivity
QVQLLESGGGLVQAGGSLRISCAASGFIFDYYMGWYRQAPGKERELVARISYTGGSTYYADSVKGRFTISRDNAKNTVYLQMNSLKPEDTAVYYCATRGAEAERFASYEFDYWGQGTQVTVSS | low polyreactivity
QVQLVESGGGLVEAGGSLRLSCAASGRIFTYYAMGWYRQAPGKERELVASISRSGGNTYYADSVKGRFTISRDNAKNTVYLQMNSLKPEDTAVYYCDAVYSRLDYWGQGTQVTVSS | high polyreactivity
QVQLVESGGGLVQAGGSLRLSCAASGSTFVKYAMGWYRQAPGKERELVAAISGYSGRTYYADSVKGRFTISRDNAKNTVYLQMNSLKPEDTAVYYCAAEWDDGRSWYWYYLVGFEYWGQGTQVTVSS | high polyreactivity
QVQLVESGGGLVQAGGSLRLSCAASGRTFFKYAMGWYRQEPGKERELVASISRTGGGSTYYADSVKGRFTISRDNAKNTVYLQMNSLQPEDTAVYYCNKYTYRGRTGEFNYWGQGTQVNVSS | high polyreactivity
QVQLVESGGGLVQAGGSLRLSCAASGSTFFRYAMGWYRQAPGKERELVAAISYSGDSTYYADSVKGRFTISRDNAKNTVDLQMNSLKPEDTAVYYCNAVYFRYRYNYWGQGTQVTVSS | high polyreactivity
QVQLVESGGGLVQAGGSLRLSCAASGRTFTSNAMGWYRQAPGKERELVAAITRGGSTYYADSVKGRFTISRDNAKITVYLQMNSLKPEDTAVYYCAAAYGGRLRYTAGYYWGQGTQVTVSS | high polyreactivity
QVQLVESGGGLVQAGGSLRLSCAASGRIITYYAMGWYRQAPGKERELVAVISSVGGTYYADSVKGRFTISRDNAKNTVYLQMNSLKPEDTAVYYCAVGKIWSRRSSTSRFGYWGQGTQVTVSS | high polyreactivity
QVQLVESGGGLVQAGGSLRLSCAASGSIFRYYDMGWYRQAPGKERELVAAISTSGVRTNYADSVKGRFTISRDNAKNTVYLQMNSLKPEDTAVYYCAARSQIYYRYRSYGYWGQGTQVTVSS | high polyreactivity
